Data on 1 molecule can be found in patent US20240279288A1, “APPLICATION OF PLANT JAZ PROTEINS AND DERIVED POLYPEPTIDES IN PREVENTION AND TREATMENT OF HUMAN AND ANIMAL TUMORS” (ANYANG INSTITUTE OF SINO-COTTON INDUSTRY INNOVATION, priority 2021, published 2024).

“Also recorded” adds a separate entry of the source.

Experiment [1] relates to breast epithelial cells (MCF10A). In words: CCK8 cell viability detection, MCF10A. It counts as cell-based. Conditions: with the increase of GhJAZ1 protein concentration. As to the method: (§1) CCK8 cell viability detection: cell suspension was seeded in 96-well plates at a concentration of 5×10^4 cells/ml (100 μL/well). The plates were placed in the incubator for pre-culture (at 37° C., 5% CO2), and control and protein agents were added to each well 24 h after seeding. The plates were then placed in the incubator for 24 h, followed by addition of 10 μL CCK8 solution into each well and incubation of the plates in the incubator for 0.5-2 h before the absorbance measurement at 450 nm using a microplate reader.
We constructed GhJAZ1 prokaryotic expression plasmid with His-tag to express proteins (see step 2 in Example 4), and then a GhJAZ1 protein, along with 6 His tags, which was approximately 30 KD in size was found by WB detection (A in FIG. 7). The purified GhJAZ1 protein was used to treat breast cancer cells (MCF7) and breast epithelial cells (MCF10A), and the cell viability was measured with CCK8.

Experiment [2] has as its system lung cancer cells A549. Kind of experiment: CCK8 cell viability detection, A549. It counts as cell-based, human. The note with it: CCK8, 24 h treatment; read-out: IC50, inhibition of A549 cells. As to the method: as §1
(§2) Analysis of effect of GhJAZ1 protein on the cell cycle and apoptosis of tumor cells

In experiment [3] the test system is ovarian cancer cells SKOV3. In words: CCK8 cell viability detection, SKOV3. It counts as cell-based, human. Conditions: CCK8, 24 h treatment; read-out: IC50, inhibition of SKOV3 cells. As to the method:
as §1, §2

The test system of experiment [4] is MCF7 cells. In words: Apoptosis staining (Calcein AM/PI), fluorescence microscopy. It counts as cell-based, human. Conditions: Calcein AM/PI staining vs PBS. As to the method:
Method for apoptosis staining. Fluorescence microscopy detection: a. Seeding and culturing. Cells were seeded onto multiwell plates such as 96-well plates, cell culture dishes, or cell slides, and were treated in a certain way according to the experimental design. b. Washing (optionally). For adherent cells, the medium was removed, and cells were washed once with PBS. For suspended cells, cells were centrifuged at 250-1000×g at room temperature for 5 min, with the supernatant removed, followed by washing once with PBS. Phenol red or serum might interfere with the detection of this kit, therefore, a vacuum pump was preferred when removing the medium and PBS. PBS washing was not necessary in the case that the residual liquid can be sufficiently aspirated. c. Staining. An appropriate volume of Calcein AM/PI detection working solution (Beyotime Biotech. Inc., Calcein/PI Cell Viability and Cytotoxicity Detection Kit, Cat. No.: C2015) was added. Usually, 100 μl were added to each well for a 96-well plate, 250 μl for a 24-well plate, 500 μl for a 12-well plate, and 1 ml for a 6-well plate. Incubation was performed at 37° C. in dark for 30 min. […] After incubation, the staining effect was observed under a fluorescence microscope (with Calcein AM in green fluorescence, Ex/Em=494/517 nm; PI in red fluorescence, Ex/Em=535/617 nm). […]

Experiment [5] relates to MCF7 breast cancer cells. Kind of experiment: Cell cycle detection (PI DNA content), MCF7. It counts as cell-based, human. Conditions: 0.691 μM, 24 h, vs PBS. As to the method: Cell cycle detection: cells were moderately digested by trypsin, and collected by centrifugation with supernatant removed, and then cells were washed with PBS, and collected by centrifugation at 1,500 rpm for 5 minutes to prepare a single-cell suspension (at a concentration of 1×10^6/ml). 1 ml of single-cell suspension was then taken and centrifuged with the supernatant discarded, and then 500 μl of 70% pre-cooled ethanol were added to fix the cells overnight at 4° C. The next day, cells were collected by centrifugation, resuspended with 1 ml of PBS and centrifuged, and then 100 μl of RNase A solution were added to the cell pellet, followed by placement in water bath at 37° C. for 30 min, and then 400 μl of PI staining solution was added and mixed well, followed by incubation at 4° C. in dark for 30 min and detection on the instrument to record under red fluorescence at the excitation wavelength of 488 nm. Specifically, a DNA content detection kit (cell cycle) (Solarbio, Cat. No.: CA1510) was used.

The target in experiment [6] is c-Myc (Homo sapiens, UniProt P01106). In words: Bimolecular fluorescence complementary experiment with c-Myc. It counts as binding. More on the design: with the full length of c-Myc and NMYC, respectively; expressed in transfected cells; host or cells: yeast Y2HGold. The note with it: bimolecular fluorescence complementation, YFP signal in the nucleus of tobacco. The text has this: GhJAZ1 (SEQ ID No. 39) was subcloned into pUC-SPYNE vector (Song, Yun, et al. “BIN2 negatively regulates plant defense against Verticillium dahliae in Arabidopsis and cotton.” Plant Biotechnology Journal (2021)) between the BamHI and XbaiI cleavage sites by the bimolecular fluorescence complementary experiment to construct pUC-SPYNE-GhJAZ1. c-Myc (NCBI accession number: NM_002467.6) was subcloned into pUC-SPYCE vector (Song, Yun, et al. “BIN2 negatively regulates plant defense against Verticillium dahliae in Arabidopsis and cotton.” Plant Biotechnology Journal (2021)) between BamHI and XbaiI cleavage sites to construct pUC-SPYCE-c-Myc. […] Testing of inhibitory effect of GhJAZ1 protein on tumor cells
Sequence of c-Myc (P01106 whole entry): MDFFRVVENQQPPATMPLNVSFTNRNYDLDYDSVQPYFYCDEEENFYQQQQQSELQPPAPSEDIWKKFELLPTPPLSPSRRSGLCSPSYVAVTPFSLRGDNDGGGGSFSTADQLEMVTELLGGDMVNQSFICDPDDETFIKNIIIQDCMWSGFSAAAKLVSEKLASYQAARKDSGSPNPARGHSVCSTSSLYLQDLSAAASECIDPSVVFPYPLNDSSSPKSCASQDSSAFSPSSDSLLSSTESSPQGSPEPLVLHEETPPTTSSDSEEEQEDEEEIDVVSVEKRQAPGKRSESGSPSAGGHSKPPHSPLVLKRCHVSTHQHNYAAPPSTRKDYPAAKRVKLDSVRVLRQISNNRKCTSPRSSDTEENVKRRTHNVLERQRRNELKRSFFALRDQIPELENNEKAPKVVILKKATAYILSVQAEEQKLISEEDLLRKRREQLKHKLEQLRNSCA

B1: GhJAZ1: cotton JAZ1 protein, gene number Gh_A05G0260, sequence SEQ ID No. 4; prokaryotically expressed with His tag, about 30 KD (protein)
chain: MSSCSESTAMKPARSPEKPSFAQTCNLLSQYLKEKGSFGDLSLGMTCNVEANGTPVVPPPTMNLFPLNDKSDDVCGRNGGNPKNLTSMDLFPQQAGLASKDDSPNKLEPQTAPMTIFYGGQVIVFNDFPANKAKEIMLLASNSSSQSNNSFNPIPFTSSIARSPIESSIGVPPTSKPVHPAQRAVPGDLPIARRASLHRFLEKRKDRITAKAPYQINNSAAAPSLSGDNKSWLGLAAQSP
modifications: His tag
notes: prokaryotically expressed with His tag, about 30 KD
Regarding B1, in experiment [1], the “viability of MCF10A cells” value is on record as “did not change significantly; also recorded: without inhibitory effect”. For the same molecule, in experiment [2], the IC50 came out at 697 nM. The IC50 in experiment [3] stood at 784 nM. In addition, the “mortality rate of MCF7 cells” value in experiment [4] is reported as “significantly increased”. Also, in experiment [5], the “proportion of G2-M phase cells (MCF7)” value is “increase” and the “proportion of S-phase cells (MCF7)” value was “decrease”. In addition, in experiment [6], the “interaction with c-Myc” value is reported as “interaction”.

Broadly, the IC50 is the midpoint of a concentration-inhibition curve.
